Assay results as given in patent publication US20240301038A1 (ATRECA, published 2024).

Biological target: T1, SARS-CoV-2 native Spike (S) trimer (Acro Biosystems) (SARS-CoV-2, UniProt P0DTC2 16-1213)
T1 construct: also called Spike trimer
Test: ELISA on spike trimer

B1: AB-009681 (antibody, V domains shown)
VH: QVQLVQSGAEVKKPGSSVKVSCKASGGTFSSYAISWVRQAPGQGLEWMGGIIPIFGTANYAQKFQGRVTITADESTSTAYMELSSLRSEDTAVYYCASVGGDYDLDYWGQGTLVTVSS
VL: EIVLTQSPATLSLSPGERATLSCRASQSVSSYLAWYQQKPGQAPRLLIYDASNRATGIPARFSGSGSGTDFTLTISSLEPEDFAVYYCQQRSNWPPYTFGQGTKLEIK
binding result: no binding
